{
  "source": "patent US20240301442A1",
  "about": "(Regeneron, published 2024)",
  "binders": {"B1": {"name": "REGN4446 anti-Zika antibody expressed in mouse serum from episomal AAV2/8.CASI.REGN4446 HC T2A RORss LC (antibody, V domains shown)", "VH": "QVQLVESGGGVVQPGRSLRLSCAASGFTFNYYGMHWVRQAPGKGLEWVAVISYDGTNKYYADSVKGRFTTSRDNSKNTLYLQMNSLRAEDTALYYCARDRGGRFDYWGQGIQVTVSS", "VL": "EIVLTQSPDTLSLSPGERATLSCRASQSVSSNYLAWYQQKPGQAPRLLIYGASSRATGIPDRFSGSGSGTDFTLTISRLEPEDFAVYYCQRYGTSPLTFGGGTKVEIKR", "notes": "also called CASI HC T2A RORss LC; AAV2/8.CASI.REGN4446 HC T2A LC"}},
  "key": {"[1]": {"biological_target": "recombinant full-length P. aeruginosa PcrV (GenScript) (Pseudomonas aeruginosa)"}, "[2]": {"biological_target": "Zika virus envelope (Env) protein on MR766 virus (Zika virus MR766, UniProt Q32ZE1 291-790)", "experiment": "cell-based or functional assay"}, "[3]": {"biological_target": "PcrV of P. aeruginosa strain 6077 (on live bacteria) (Pseudomonas aeruginosa strain 6077)", "experiment": "cell-based or functional assay"}, "Zika (prM80E)-mmh": {"biological_target": "T1, Zika (prM80E)-mmh (Zika virus)", "T1 construct": "domain: prM80E; also called Zika envelope protein; Lot #REGN4233-L4", "experiment": "ELISA, Zika (prM80E)-mmh coated, mouse serum, anti-human IgG HRP detection"}},
  "note": "Where “and” joins values, the source holds several entries; their conditions need not be identical. Equal values may be shown once.",
  "data": [
    {"binder": "B1", "values": [
      {"measurement": "EC50", "setting": "[1]", "result": 204, "unit": "nM"},
      {"measurement": "Neutralization EC50", "setting": "[2]", "result": "0.469 nM and 0.605 nM"},
      {"measurement": "Neutralization IC50", "setting": "[3]", "result": "~0.00889", "unit": "nM"},
      {"measurement": "EC50", "setting": "Zika (prM80E)-mmh", "result": "0.296 nM and 0.521 nM"}
    ]}
  ]
}
